This is an account of results in patent publication US20250034594A1, “RNA-GUIDED GENOME RECOMBINEERING AT KILOBASE SCALE” (THE BOARD OF TRUSTEES OF THE LELAND STANFORD JUNIOR …, priority 2021, published 2025).

What all share (format): cell-based
The test system of one test is gene editing with Cas9. Put plainly: Screen of 322 new SSAP proteins, gene editing activity with Cas9 (Table 5). Also on record: Cas9 with SSAP activity: scale not given here. The essentials: (§1)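 The 322 SSAP proteins were found in sequence data and then synthesized. Each was screened for gene editing activity when paired with Cas9 and with dCas9.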
The next test concerns gene editing with dCas9. Put plainly: Screen of 322 new SSAP proteins, gene editing activity with dCas9 (Table 5). Also on record: dCas9 with SSAP activity: scale not given here. The essentials:
as §1

Test [1] deals with gene editing with Cas9 and dCas9. Description: Screen of 322 new SSAP proteins, activity across all experiments (Cas9 and dCas9, Table 5). Also on record: scale not given here. The essentials:
as §1

B1: SSAP_218: SEQ ID NO: 387; Streptococcus lutetiensis (protein, listed as Streptococcus lutetiensis)
chain: ANQLQMSHKDFFNRPAVKNKFSEVVSGKSDQFITSLLSVVNNNKLLSKADNNSILNAAMKAATLNLPIEPSLGSAYIVPFKGQAQFQLGYKGLIELAQRSGQYKSINAGVVYKAQFKSYDPLFETLDLDFNQPQDEVIGYFACFELLNGFRKITYWTREEVYNHGKRFSKSFNNGPWKTDFDAMAKKTLLKSIIGTYGPKSVDMQEAITDDNKTEYEKAEPIDVTPQEENLTDLIGETPQEELPIANPETGEIQEEQTALFNQLGDLTDD
Consider B1, for which, in the test with gene editing with Cas9, the “Cas9 with SSAP activity” value is listed as −6.903 and the “Cas9 with SSAP activity (normalized)” value was −1.680. Further, in the test on gene editing with dCas9, the “dCas9 with SSAP activity” value was −2.770 and the “dCas9 with SSAP activity (normalized)” value is listed as −0.443. Besides, the “Activity across all experiments” value in test [1] is recorded as −4.836.

B2: SSAP_239: SEQ ID NO: 408; Paenibacillus polymyxa (protein, listed as Paenibacillus polymyxa)
chain: PDKLLVIHDNLNKMLDEKSEAMPTSFNKTRFLQNCMAVLQDTKDIEQCDAKSVARTMLKGAFLGLDFFNKECYAIPYNENIGTKNKPRWIKSLQFQTDYKGEKKLAKKYSTRRVKDIYAKLVRDGDDFREEIESGQPTINFRPLPFNDGIIRGAFAVALFEDGGMIYETMSLKEIEKTRDDYSKQSTGKAWTKSPGEMYKKTVLRRLCKNIELDFDTIEQAQAFEDSSDFDMNKELKPQQQSPLNPNTTIIDAEYEEIKEEPADGPEQE
With B2, in the test with gene editing with Cas9, the “Cas9 with SSAP activity” value is listed as 1.340 and the “Cas9 with SSAP activity (normalized)” value was 0.516. Moreover, in the test on gene editing with dCas9, the “dCas9 with SSAP activity” value came to 2.282 and the “dCas9 with SSAP activity (normalized)” value is recorded as 1.278. For the same molecule, in test [1], the “Activity across all experiments” value is 1.811.

B3: SSAP_23: SEQ ID NO: 192 (protein)
chain: TNNQLATQIKRDITTDPSLLTGADIKKYFDPQNLLTEKQVGQALALCKGRNLNPFANEVYIVAYQNNSGTEFSLIVSKEAFMKRAERCEGYDGFEAGITVMRNGEMIEIEGSLKLPEDILIGGWAVVYRKDRSHRYKVTVDFNEYVKTDRNGNPRSTWKSMPATMIRKTALVQTLREAFPDELGNMYTDIDGGDTFDAIKDVTPQESREDVVARKMAQIDQFNKEQEANHADPEPTQNEDPIQGELLDGELEY
Regarding B3, in the test on gene editing with Cas9, the “Cas9 with SSAP activity” value is listed as 0.839 and the “Cas9 with SSAP activity (normalized)” value was 0.359. Further, in the test on gene editing with dCas9, the “dCas9 with SSAP activity” value is −2.835 and the “dCas9 with SSAP activity (normalized)” value was −0.450. Further, in test [1], the “Activity across all experiments” value is given as −0.998.

B4: SSAP_64: SEQ ID NO: 233 (protein)
chain: SELQQAAQGQQSNNPVSFIYSHAKDIQNVLTKGTDMDRWLQMARLAVMRDQNLVASAKRDPGSLMQALLDCAEKGHVPGTEDYYLVPRKGGIQGMESWKGIAKRIMRSGRYQSIVNEVVYEGETFEFNPNTMDRPVHNINYMTRTSGKPVMSYAYALDHDGKPSSVAIADPRYIAKVKKNSRGSVWEDWDEQMYRKTAVKMLQDYVDTSSVDRRDVSTVQVDDANVIDVDDTFTAREAGE
For B4, in the test with gene editing with Cas9, the “Cas9 with SSAP activity” value came out at 1.588 and the “Cas9 with SSAP activity (normalized)” value is given as 1.090. Besides, in the test with gene editing with dCas9, the “dCas9 with SSAP activity” value is listed as −2.755 and the “dCas9 with SSAP activity (normalized)” value was −1.023. The “Activity across all experiments” value in test [1] is given as −0.583.
